The source of these data is US6972178B1, “Drug screening using a proline-rich nuclear receptor co-regulatory protein/nuclear receptor co-expression system” (City of Hope, priority 1999, dated 2005).

The target of the assay is T1, ERRα1 (Homo sapiens, UniProt P11474).
T1 construct: inserting the PCR-amplified ERRA-1 coding region into pGBT9 through an EcoRI site; expressed in transfected cells; host or cells: yeast Y187 x CG1945 diploids
T1 sequence (P11474 1-423): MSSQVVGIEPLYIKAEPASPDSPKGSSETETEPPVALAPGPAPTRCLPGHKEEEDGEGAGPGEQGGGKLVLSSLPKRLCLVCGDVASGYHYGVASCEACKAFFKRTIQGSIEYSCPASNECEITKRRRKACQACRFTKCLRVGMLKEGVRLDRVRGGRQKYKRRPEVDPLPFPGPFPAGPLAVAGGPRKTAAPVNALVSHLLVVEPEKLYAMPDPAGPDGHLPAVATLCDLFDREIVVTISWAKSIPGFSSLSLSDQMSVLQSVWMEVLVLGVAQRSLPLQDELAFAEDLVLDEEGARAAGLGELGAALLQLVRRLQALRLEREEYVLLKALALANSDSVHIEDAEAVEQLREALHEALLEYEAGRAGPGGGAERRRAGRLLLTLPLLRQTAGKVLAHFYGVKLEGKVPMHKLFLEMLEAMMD
Kind of assay: Nuclear receptor transactivation, CAT reporter in SK-BR-3 cells. The class given is cell-based. The text has this:
To examine the possible biological significance of this interaction, the entire PNRC coding region was inserted into a mammalian expression vector, pSG5, and this expression plasmid was used to transiently transfect SK-BR-3 cells along with a reporter plasmid, pUMS 1.3CAT-(SF1site)3, which contains three copies of extended steroid hormone half binding site from the human aromatase gene (5′-CCAAGGTCAGAA-3′ (SEQ ID NO:3)), promoter 1.3 of the human aromatase gene, and the CAT reporter gene, along with a second expression plasmid for either SF1 (pSG5-SF1) or ERRα1 (pSG5-ERRα1) (Yang et al., 1998).
Plasmid for overexpression of PNRC in mammalian cells was made by inserting PCR-amplified fragment with BclI at both ends into the BamHI site in pSG5 vector (Stratagene). To construct mammalian expression plasmids for bovine SF1 and human ERRα1, named pSG5-bSF1 and pSGS-hERRα1, the coding regions for SF1 and ERRα1 were amplified by PCR with an EcoRI site at both ends, and inserted into an EcoRI site of the pSG5 vector. The CAT reporter plasmid, pUMS1.3CAT-(SF1site)3, was prepared by inserting 3 copies of SF1 binding site from human aromatase gene, 5′-CCAAGGTCAGAA-3′ (SEQ ID NO:3), into pUMS-64/+5CAT (Zhou and Chen, 1999) through a HindIII site. […]

For the substance “PNRC: proline-rich nuclear receptor co-regulatory protein, 327 aa, SEQ ID NO:8, nuclear receptor coactivator”, the “effect on ERRα1-stimulated transcription by promoter 1.3 of the human aromatase gene” value is “enhanced both SF1-stimulated and ERRα1-stimulated transcription”.
